Source: US20140170137A1 (NVIP, published 2014)
Residue numbers refer to the chain shown, from its start.

B1: caN-HCA-kLC (antibody)
heavy: EVQLVESGGDLVNPGGTLTLSCVVSGFSLTNNNVNWVRQALGRGLEWVGGVWAGGATDYNSALKSRLTITRDTSKSTVFLKMHSLQSEDTATYYCARDGGYSSSTLYAMDAWGQGTLVTVSSASTTAPSVFPLAPSCGSTSGSTVALACLVSGYFPEPVTVSWNSGSLTSGVHTFPSVLQSSGLHSLSSMVTVPSSRWPSETFTCNVVHPASNTKVDKPVFNECRCTDTPPCPVPEPLGGPSVLIFPPKPKDILRITRTPEVTCVVLDLGREDPEVQISWFVDGKEVHTAKTQSREQQFNGTYRVVSVLPIEHQDWLTGKEFKCRVNHIDLPSPIERTISKARGRAHKPSVYVLPPSPKELSSSDTVSITCLIKDFYPPDIDVEWQSNGQQEPERKHRMTPPQLDEDGSYFLYSKLSVDKSRWQQGDPFTCAVMHETLQNHYTDLSLSHSPGK
light: DIQMTQSPASLSLSQEEKVTITCRASEDIYNALAWYQQKPGQAPKLLIYNTDTLHTGVPSRFSGSGSGTEYSLTINSLESEDVAVYFCQHYFHYPRTFGAGTKVELKRNDAQPAVYLFQPSPDQLHTGSASVVCLLNSFYPKDINVKWKVDGVIQDTGIQESVTEQDKDSTYSLSSTLTMSSTEYLSHELYSCEITHKSLPSTLIKSFQRSECQRVD
notes: Caninised aD11 VH joined to canine HCA (caIgG-A) constant domain; caninised aD11 VL joined to canine kappa constant domain; also called caninised anti-NGF antibody, HCA isotype; anti-canine NGF antibody (HCA isotype)
B2: caN-HCC-kLC (antibody)
heavy: EVQLVESGGDLVNPGGTLTLSCVVSGFSLTNNNVNWVRQALGRGLEWVGGVWAGGATDYNSALKSRLTITRDTSKSTVFLKMHSLQSEDTATYYCARDGGYSSSTLYAMDAWGQGTLVTVSSASTTAPSVFPLAPSCGSQSGSTVALACLVSGYIPEPVTVSWNSVSLTSGVHTFPSVLQSSGLYSLSSMVTVPSSRWPSETFTCNVAHPATNTKVDKPVAKECECKCNCNNCPCPGCGLLGGPSVFIFPPKPKDILVTARTPTVTCVVVDLDPENPEVQISWFVDSKQVQTANTQPREEQSNGTYRVVSVLPIGHQDWLSGKQFKCKVNNKALPSPIEEIISKTPGQAHQPNVYVLPPSRDEMSKNTVTLTCLVKDFFPPEIDVEWQSNGQQEPESKYRMTPPQLDEDGSYFLYSKLSVDKSRWQRGDTFICAVMHEALHNHYTQISLSHSPGK
light: B1 light
notes: Caninised aD11 VH joined to canine HCC (caIgG-C) constant domain; canine kappa light chain; CHO supernatant; also called caninised anti-NGF antibody, HCC isotype
B3: caN-HCB-kLC (antibody)
heavy: EVQLVESGGDLVNPGGTLTLSCVVSGFSLTNNNVNWVRQALGRGLEWVGGVWAGGATDYNSALKSRLTITRDTSKSTVFLKMHSLQSEDTATYYCARDGGYSSSTLYAMDAWGQGTLVTVSSASTTAPSVFPLAPSCGSTSGSTVALACLVSGYFPEPVTVSWNSGSLTSGVHTFPSVLQSSGLYSLSSMVTVPSSRWPSETFTCNVAHPASKTKVDKPVPKRENGRVPRPPDCPKCPAPEMLGGPSVFIFPPKPKDTLLIARTPEVTCVVVDLDPEDPEVQISWFVDGKQMQTAKTQPREEQFNGTYRVVSVLPIGHQDWLKGKQFTCKVNNKALPSPIERTISKARGQAHQPSVYVLPPSREELSKNTVSLTCLIKDFYPPDIDVEWQSNGQQEPESKYRTTPPQLDEDGSYFLYSKLSVDKSRWQRGDTFICAVMHEALHNHYTQESLSHSPGK
light: B1 light
notes: Caninised aD11 VH joined to canine HCB (caIgG-B) constant domain; canine kappa light chain; CHO supernatant; also called caninised anti-NGF antibody, HCB isotype
B4: caN-HCD-kLC (antibody)
heavy: EVQLVESGGDLVNPGGTLTLSCVVSGFSLTNNNVNWVRQALGRGLEWVGGVWAGGATDYNSALKSRLTITRDTSKSTVFLKMHSLQSEDTATYYCARDGGYSSSTLYAMDAWGQGTLVTVSSASTTAPSVFPLAPSCGSTSGSTVALACLVSGYFPEPVTVSWNSGSLTSGVHTFPSVLQSSGLYSLSSTVTVPSSRWPSETFTCNVVHPASNTKVDKPVPKESTCKCISPCPVPESLGGPSVFIFPPKPKDILRITRTPEITCVVLDLGREDPEVQISWFVDGKEVHTAKTQPREQQFNSTYRVVSVLPIEHQDWLTGKEFKCRVNHIGLPSPIERTISKARGQAHQPSVYVLPPSPKELSSSDTVTLTCLIKDFYPPEIDVEWQSNGQPEPESKYHTTAPQLDEDGSYFLYSKLSVDKSRWQQGDTFTCAVMHEALQNHYTDLSLSHSPGK
light: B1 light
notes: Caninised aD11 VH joined to canine HCD (caIgG-D) constant domain; canine kappa light chain; CHO supernatant; also called caninised anti-NGF antibody, HCD isotype
B5: anti-NGF MAb with aglycosyl HCC heavy chain (HCC*) (antibody)
heavy: B2 heavy with N303A
light: B1 light
B6: anti-NGF MAb with aglycosyl HCB heavy chain (HCB*) (antibody)
heavy: B3 heavy with N305A
light: B1 light
notes: also called aglycosylated HCB*; aglycosyl HCB* isotype anti-NGF antibody

What was measured:
mouse NGF [1] = molecular target: T1, mouse NGF (mouse, UniProt P01139 122-241); assay: ELISA, CHO supernatant on murine NGF
T1 construct: also called murine NGF

complement C1q [2] = molecular target: T2, complement C1q (human, UniProt P02745 23-245; P02746 28-253; P02747 29-245); assay: C1q ELISA, antibody captured on mouse NGF coated plates
T2 construct: Supplied as human serum diluted 1/100; detected with sheep anti-C1q-HRP

[3] = molecular target: NGF (TF-1 cell proliferation assay); assay: cell-based or functional assay
mouse NGF [4] = molecular target: T1, mouse NGF; assay: binding ELISA to mouse NGF, CHO supernatants
complement C1q [5] = molecular target: T2, complement C1q; assay: C1q ELISA, antibody captured on mouse NGF, human serum 1/100
complement C1q [6] = molecular target: T2, complement C1q; assay: C1q ELISA, antibody captured on NGF
complement C1q [7] = molecular target: T2, complement C1q; assay: C1q ELISA, antibody captured on NGF coated plates

T2 sequence (P02745 23-245 limits assumed, chain 1 of 3): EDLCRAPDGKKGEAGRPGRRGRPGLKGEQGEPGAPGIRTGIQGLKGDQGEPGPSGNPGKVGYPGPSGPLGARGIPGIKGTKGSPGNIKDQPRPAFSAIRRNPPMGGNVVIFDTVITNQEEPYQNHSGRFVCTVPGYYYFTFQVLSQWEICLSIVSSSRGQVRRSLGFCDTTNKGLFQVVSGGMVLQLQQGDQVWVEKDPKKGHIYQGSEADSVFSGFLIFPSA
T2 sequence (P02746 28-253 limits assumed, chain 2 of 3): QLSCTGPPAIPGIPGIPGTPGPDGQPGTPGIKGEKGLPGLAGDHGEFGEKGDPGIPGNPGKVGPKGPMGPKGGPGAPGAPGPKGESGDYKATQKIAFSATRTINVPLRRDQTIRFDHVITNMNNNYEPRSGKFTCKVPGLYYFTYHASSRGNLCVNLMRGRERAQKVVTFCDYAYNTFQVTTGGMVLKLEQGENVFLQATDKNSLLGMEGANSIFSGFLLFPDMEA
T2 sequence (P02747 29-245 limits assumed, chain 3 of 3): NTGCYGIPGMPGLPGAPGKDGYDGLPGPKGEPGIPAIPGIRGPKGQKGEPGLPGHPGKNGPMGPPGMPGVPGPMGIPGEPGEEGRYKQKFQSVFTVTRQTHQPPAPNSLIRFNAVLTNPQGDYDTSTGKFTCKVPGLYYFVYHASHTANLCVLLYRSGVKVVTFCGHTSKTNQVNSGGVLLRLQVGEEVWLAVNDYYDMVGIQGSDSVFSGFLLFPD
T1 sequence (P01139 122-241 limits assumed): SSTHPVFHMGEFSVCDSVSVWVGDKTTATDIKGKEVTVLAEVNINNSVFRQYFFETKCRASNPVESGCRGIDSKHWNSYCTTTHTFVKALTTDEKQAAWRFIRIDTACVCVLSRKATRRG
NGF (TF-1 cell proliferation assay), sequence (P01138 122-241): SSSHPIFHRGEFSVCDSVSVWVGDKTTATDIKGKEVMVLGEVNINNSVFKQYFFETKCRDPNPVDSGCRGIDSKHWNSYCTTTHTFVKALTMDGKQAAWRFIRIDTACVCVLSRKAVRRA

| Binder | binding result (mouse NGF [1]) | binding result (complement C1q [2]) | binding result (mouse NGF [4]) | binding result (complement C1q [5]) | also measured |
| --- | --- | --- | --- | --- | --- |
| B1 | binds | no binding (tested: human serum diluted 1/100) |  |  | IC50, TF-1 NGF neutralisation assay [3]: 0.013 nM |
| B2 |  |  | binds | binds |  |
| B3 |  |  | binds | binds |  |
| B4 | binds | no binding (tested: human serum diluted 1/100) |  |  |  |
| B5 |  |  | binds |  | binding result (complement C1q [6]): binds |
| B6 |  |  | binds |  | binding result (complement C1q [7]): no binding (tested: human serum diluted 1/100) |
